From patent publication US20240209456, “METHODS AND COMPOSITIONS RELATED TO CELL-CYCLE RNA's” (BETH ISRAEL DEACONESS MEDICAL CENTER, published 2024)

B1: UR2 (ssRNA)
RNA: CUUUCCUCCACUCUCCCUGGGA
B2: UR1 (ssRNA)
RNA: GCGCCCUGCAGCCUGGUACGCG
B3: UR3 (ssRNA)
RNA: GCCCUUUCCCCAGCCUUAGCGA
B4: RM9A (ssRNA)
RNA: GGCGUGGCGGUGGGCGCGCAGU

How the values were obtained:
[1] = biological target: T1, Histone H2A.Z, full length (UniProt P0C0S5 P0C0S5:2-128); assay: EMSA; no detectable RNP; conditions: tags: Abcam; label: 5'-32P
Protocol: (§1) Indeed, mutation of RM9A abolishing the predicted stem-loop structure, did change the strength and the mobility of the RNA-TIP60 complexes (Mut RM9A; FIG. 3E, lane 5).
(§2) RNA oligonucleotides (15 pmol) were end-labeled with [γ-³²P] ATP (Perkin Elmer) and T4 polynucleotide kinase (New England Biolabs). Reactions were incubated at 37° C. for 1 h and then passed through G-25 spin columns (GE Healthcare) according to the manufacturer's instructions to remove unincorporated radioactivity. Labeled samples were gel-purified on 10% polyacrylamide gels. Binding reactions were carried out in 10 μL volumes in the following buffer: 5 mM Tris pH 7.4, 5 mM MgCl₂, 1 mM DTT, 3% v/v glycerol, 100 mM NaCl. 5 μg of full length purified H2A.Z (Abcam) and TIP60 (SignalChem) proteins were incubated with 1.1 nM of ³²P-labeled ss RNAs. All reactions were assembled on ice and then incubated at room temperature for 30 min. Samples were loaded onto 6% native polyacrylamide gels (0.5×TBE) at 4° C. for 3 h at 140 V. Various concentrations (1 μM-10 mM) of H2A.Z and K7 acetylated H2A.Z peptides (AnaSpec) were incubated with a fixed amount of probe in 50 mM Tris-HCl pH 7.5, 100 mM NaCl, 0.4 mM EDTA, and 40 U/ml RNasin, 1 mM DTT, 50% glycerol in a final volume of 10 μL. Thereafter, 1 μl glutaraldehyde (0.2% final concentration) was added into the mixture and incubated at room temperature for 15 minutes. Samples were loaded onto 10% native polyacrylamide gels (0.5×TBE) at 4° C. for 3 h at 170 V. All gels were dried upon fixation with Methanol and Acetic Acid and exposed to X-ray film.

[2] = biological target: T2, TIP60 (KAT5), full length (UniProt Q92993 Q92993:1-513); assay: EMSA; no detectable RNP; conditions: tags: SignalChem; label: 5'-32P
Protocol: as §1, §2

[3] = biological target: T1, Histone H2A.Z, full length; assay: EMSA; 5 mM Tris pH 7.4, 5 mM MgCl2, 100 mM NaCl, RT; conditions: tags: Abcam; label: 5'-32P; predicted stem-loop
Protocol: as §1
as §2, with “Samples were loaded onto 10% native polyacrylamide gels (0.5×TBE) at 4° C. for 3 h at 170 V. All gels were dried upon fixation with Methanol and Acetic Acid and exposed to X-ray film.” left out

[4] = biological target: T2, TIP60 (KAT5), full length; assay: as above; conditions: tags: SignalChem; label: 5'-32P; predicted stem-loop
Protocol: as §1
as §2, with “Samples were loaded onto 10% native polyacrylamide gels (0.5×TBE) at 4° C. for 3 h at 170 V. All gels were dried upon fixation with Methanol and Acetic Acid and exposed to X-ray film.” left out

[5] = biological target: T3, acH2A.Z N-terminal peptide (K7 acetylated); assay: EMSA; K7 acetylation did not abrogate binding; glutaraldehyde crosslink; conditions: protein: synthetic, tags: synthetic peptide, AnaSpec, label: 5'-32P, predicted stem-loop
T3 chain: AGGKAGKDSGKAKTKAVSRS
Protocol: as §1
as §2, with “Samples were loaded onto 10% native polyacrylamide gels (0.5×TBE) at 4° C. for 3 h at 170 V. All gels were dried upon fixation with Methanol and Acetic Acid and exposed to X-ray film.” left out

H2A.Z N-terminal peptide = biological target: T4, H2A.Z N-terminal peptide; assay: EMSA; peptide 1 uM-10 mM, glutaraldehyde crosslink; conditions: protein: synthetic; tags: synthetic peptide, AnaSpec; label: 5'-32P; predicted stem-loop
T4 chain: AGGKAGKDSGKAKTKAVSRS
Protocol: as §1
as §2, with “Samples were loaded onto 10% native polyacrylamide gels (0.5×TBE) at 4° C. for 3 h at 170 V. All gels were dried upon fixation with Methanol and Acetic Acid and exposed to X-ray film.” left out

T2 sequence (Q92993 whole entry, one chain of several): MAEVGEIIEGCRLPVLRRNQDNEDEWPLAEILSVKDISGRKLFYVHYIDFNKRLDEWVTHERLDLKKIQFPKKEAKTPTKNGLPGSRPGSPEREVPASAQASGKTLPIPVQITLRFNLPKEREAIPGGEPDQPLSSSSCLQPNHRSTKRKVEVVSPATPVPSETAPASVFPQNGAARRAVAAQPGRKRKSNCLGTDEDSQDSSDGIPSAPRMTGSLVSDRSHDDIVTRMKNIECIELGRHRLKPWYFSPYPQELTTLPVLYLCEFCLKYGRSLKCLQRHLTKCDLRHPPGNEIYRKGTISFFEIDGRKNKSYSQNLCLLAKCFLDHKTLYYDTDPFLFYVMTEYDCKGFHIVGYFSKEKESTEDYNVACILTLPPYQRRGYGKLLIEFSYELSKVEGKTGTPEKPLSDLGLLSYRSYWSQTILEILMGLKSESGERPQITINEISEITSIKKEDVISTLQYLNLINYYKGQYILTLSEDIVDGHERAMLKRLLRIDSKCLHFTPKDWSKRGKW

Binder	binding result [1]	binding result [2]	binding result [3]	binding result [4]	binding result [5]	binding result (H2A.Z N-terminal peptide)
B1	no binding	no binding	–	–	–	–
B2	no binding	no binding	–	–	–	–
B3	no binding	no binding	–	–	–	–
B4	–	–	binds	binds	binds	binds
